Literature values, collected in article PMC4365979.

Target: Rab11 (Homo sapiens) (UniProt P62491)
Sequence of UniProt P62491 (P62491 2-213): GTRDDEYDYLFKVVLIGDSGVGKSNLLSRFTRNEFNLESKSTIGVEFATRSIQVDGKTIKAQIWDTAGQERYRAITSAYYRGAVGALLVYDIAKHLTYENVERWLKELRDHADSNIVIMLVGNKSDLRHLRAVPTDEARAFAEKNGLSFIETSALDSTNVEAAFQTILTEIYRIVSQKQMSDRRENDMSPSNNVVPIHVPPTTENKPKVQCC

Which Kd does the source give for Rab11-FIP1/RCP (from UniProt Q6WKZ4) here?
The Kd was 0.05 µM.
